How the values were obtained:
[1] = molecular target: zebrafish Olig1, mammalian two-hybrid fusion (zebrafish); assay: two-hybrid
[2] = molecular target: zebrafish Olig2, mammalian two-hybrid fusion (zebrafish); assay: two-hybrid
Olig1 [3] = molecular target: T1, Olig1 (Danio rerio (zebrafish), UniProt Q5QJR2 1-235); assay: competition
T1 sequence: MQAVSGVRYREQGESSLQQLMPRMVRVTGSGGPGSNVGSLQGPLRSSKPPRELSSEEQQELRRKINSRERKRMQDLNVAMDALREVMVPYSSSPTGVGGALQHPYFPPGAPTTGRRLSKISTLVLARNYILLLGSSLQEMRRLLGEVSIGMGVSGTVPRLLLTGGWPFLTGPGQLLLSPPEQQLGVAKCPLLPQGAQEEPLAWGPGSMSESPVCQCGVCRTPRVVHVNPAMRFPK

Sox10 [4] = molecular target: T2, Sox10 (Danio rerio (zebrafish), UniProt Q90XD1 1-485); assay: EMSA
Olig1 [5] = molecular target: T1, Olig1; assay: EMSA
Sox10 [6] = molecular target: T2, Sox10; assay: competition

Question: “zebrafish Olig1, mammalian two-hybrid fusion (natural protein)” was tested. Which fold increase of luciferase activity [1] did it give?
Answer: Its fold increase of luciferase activity is 8 fold.

Question: And the fold increase of luciferase activity [2]?
Answer: The fold increase of luciferase activity was 8 fold.

B1: EbmutS2 (dsDNA)
DNA 1: CAAGTCGGGGTTGTAATGGACTAGAACAATAGCAGCTCC
DNA 2: GGAGCTGCTATTGTTCTAGTCCATTACAACCCCGACTTG
Question: Does B1 bind (Olig1 [3])?
Answer: Result: no binding

B2: EbS2 (dsDNA)
DNA 1: CAAGTCGGGGCAGATGTGGACTAGAACAATAGCAGCTCC
DNA 2: GGAGCTGCTATTGTTCTAGTCCACATCTGCCCCGACTTG
Question: Does B2 bind (Sox10 [4])?
Answer: Result: binds

Question: Does B2 bind (Olig1 [5])?
Answer: Result: binds

B3: EbS2mut (dsDNA)
DNA 1: CAAGTCGGGGCAGATGTGGACTAGGCCGCTAGCAGCTCC
DNA 2: GGAGCTGCTAGCGGCCTAGTCCACATCTGCCCCGACTTG
Question: Does B3 bind (Sox10 [6])?
Answer: Result: no binding

Source: article PMC6329447
